Biological target: T1, GlxR (Cg-GlxR) (Corynebacterium glutamicum, UniProt Q79VI7 1-227)
T1 sequence: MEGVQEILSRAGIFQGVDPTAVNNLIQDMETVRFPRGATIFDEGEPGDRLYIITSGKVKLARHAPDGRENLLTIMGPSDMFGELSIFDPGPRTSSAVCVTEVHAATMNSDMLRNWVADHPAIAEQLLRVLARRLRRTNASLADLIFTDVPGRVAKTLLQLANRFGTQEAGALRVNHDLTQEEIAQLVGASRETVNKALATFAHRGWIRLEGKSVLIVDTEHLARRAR
Experiment: fluorescence anisotropy; 1.5 mM cAMP; 100 mM KH2PO4 pH 7.8, 200 mM KCl, 1 mM 1-thioglycerol, 0 or 1.5 mM cAMP, 5 nM labelled DNA; temperature not stated
Conditions: protein: recombinant; tags: His6 (N-terminal, pET16b); chain copies: 2; label: 5'-FITC on strand 1; blunt

B1: FITC-labelled 26-mer duplex (dsDNA)
DNA 1: ATTAATGTGAGTTAGCTCACTCATTA
DNA 2: TAATGAGTGAGCTAACTCACATTAAT
Kd: 87 nM
